Measured values taken from patent publication US20240262905A1 (PANDION OPERATIONS, published 2024).

T1: human DSG-3 (human, UniProt P32926 50-615, limits assumed)
T1 construct: Soluble analyte (Octet) and plate coat (ELISA); also called hDSG-3
T1 sequence (looked up): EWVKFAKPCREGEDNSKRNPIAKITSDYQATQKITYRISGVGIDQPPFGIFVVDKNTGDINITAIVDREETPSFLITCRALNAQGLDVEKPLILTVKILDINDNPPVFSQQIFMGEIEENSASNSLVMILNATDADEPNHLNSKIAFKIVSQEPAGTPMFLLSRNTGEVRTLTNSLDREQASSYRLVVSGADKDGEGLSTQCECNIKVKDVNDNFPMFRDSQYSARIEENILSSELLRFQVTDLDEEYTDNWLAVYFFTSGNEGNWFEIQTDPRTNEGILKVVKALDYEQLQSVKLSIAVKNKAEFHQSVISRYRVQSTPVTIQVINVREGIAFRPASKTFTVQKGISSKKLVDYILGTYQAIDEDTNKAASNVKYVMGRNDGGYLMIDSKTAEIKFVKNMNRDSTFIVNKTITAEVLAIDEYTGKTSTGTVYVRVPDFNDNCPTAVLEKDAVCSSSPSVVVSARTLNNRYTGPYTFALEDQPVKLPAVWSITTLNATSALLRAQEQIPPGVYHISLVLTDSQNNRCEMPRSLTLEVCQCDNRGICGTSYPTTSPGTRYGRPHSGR

T2: human CD25 (human, UniProt P01589 22-213, limits assumed)
T2 construct: construct not described
T2 sequence (looked up): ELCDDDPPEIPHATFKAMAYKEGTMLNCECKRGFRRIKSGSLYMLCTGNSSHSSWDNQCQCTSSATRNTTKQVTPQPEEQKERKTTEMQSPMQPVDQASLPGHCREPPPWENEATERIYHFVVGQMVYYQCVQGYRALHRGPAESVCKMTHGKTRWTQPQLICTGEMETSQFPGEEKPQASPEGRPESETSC

B1: IL2DSGAB7 (other)
heavy: EVQLVESGGGLVQPGRSLRLSCAASGFTFDDYAMHWVRQAPGKGLEWVSGISWNSGSIDYADSVKGRFTISRDNAKNSLYLQMNSLRVEDTALYYCAKDGSRVFGVGGGFDFWGQGTMVTVSSASTKGPSVFPLAPSSKSTSGGTAALGCLVKDYFPEPVTVSWNSGALTSGVHTFPAVLQSSGLYSLSSVVTVPSSSLGTQTYICNVNHKPSNTKVDKKVEPKSCDKTHTCPPCPAPEAAGAPSVFLFPPKPKDTLMISRTPEVTCVVVDVSHEDPEVKFNWYVDGVEVHNAKTKPREEQYNSTYRVVSVLTVLHQDWLNGKEYKCKVSNKALPAPIEKTISKAKGQPREPQVYTLPPSREEMTKNQVSLTCLVKGFYPSDIAVEWESNGQPENNYKTTPPVLDSDGSFFLYSKLTVDKSRWQQGNVFSCSVMHEALHNHYTQKSLSLSPG
light: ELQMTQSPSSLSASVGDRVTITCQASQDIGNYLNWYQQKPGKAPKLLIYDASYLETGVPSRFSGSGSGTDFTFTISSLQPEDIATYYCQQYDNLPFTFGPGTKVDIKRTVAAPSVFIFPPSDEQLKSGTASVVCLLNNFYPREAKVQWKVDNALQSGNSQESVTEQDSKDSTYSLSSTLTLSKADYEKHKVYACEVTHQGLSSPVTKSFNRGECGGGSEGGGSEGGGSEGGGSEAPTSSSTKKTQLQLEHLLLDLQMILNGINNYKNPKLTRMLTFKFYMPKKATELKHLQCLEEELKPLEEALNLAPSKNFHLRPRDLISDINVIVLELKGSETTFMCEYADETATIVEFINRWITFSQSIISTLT
notes: also called TL2DSGAB7
B2: PD1DSGAB1 (bispecific antibody)
heavy: QVQLVQSGAEVKKPGASVKVSCKASGYSFTTYYMHWVRQAPGQGLEWMGIINPSGGSTSYAQKFQGRVTMTRDTSTSTVYMELSSLRSEDTAVYYCASGWVYWGQGTLVTVSSASTKGPSVFPLAPSSKSTSGGTAALGCLVKDYFPEPVTVSWNSGALTSGVHTFPAVLQSSGLYSLSSVVTVPSSSLGTQTYICNVNHKPSNTKVDKKVEPKSCDKTHTCPPCPAPEAAGAPSVFLFPPKPKDTLMISRTPEVTCVVVDVSHEDPEVKFNWYVDGVEVHNAKTKPREEQYNSTYRVVSVLTVLHQDWLNGKEYKCKVSNKALPAPIEKTISKAKGQPREPQVYTLPPSREEMTKNQVSLTCLVKGFYPSDIAVEWESNGQPENNYKTTPPVLDSDGSFFLYSKLTVDKSRWQQGNVFSCSVMHEALHNHYTQKSLSLSPGGGGGSGGGGSGGGGSQSVLTQPPSVSGTPGQRVTISCSGSSSHIGSNYVYWYQQLPGTAPKILIYSNDQRPAGVPDRFSASKSGTSASLAISGLRSEDEADYYCAAWDDGQGGVFGGGTKLTVLGGGGSGGGGSGGGGSGGGGSQVQLQESGPGPVKPSGTLSLTCGVSGGSISSNHWWTWVRQPPGKGLEWIGEIYHNGSTFLNPSLKSRVTISVDKSNNQFSLKLTSVTAADTAVYYCARGWHRTGFRGYPSHWYFDLWGRGTLVSVSS
light: not shown
notes: Anti-PD-1 agonist human IgG1 with an SD1 anti-desmoglein scFv at the C-terminus of each heavy chain (PD-1 ML-N format)
B3: PD1DSGAB3 (bispecific antibody, human IgG1, kappa)
heavy: QVQLVQSGAEVKKPGASVKVSCKASGYSFTTYYMHWVRQAPGQGLEWMGIINPSGGSTSYAQKFQGRVTMTRDTSTSTVYMELSSLRSEDTAVYYCASGWVYWGQGTLVTVSSASTKGPSVFPLAPSSKSTSGGTAALGCLVKDYFPEPVTVSWNSGALTSGVHTFPAVLQSSGLYSLSSVVTVPSSSLGTQTYICNVNHKPSNTKVDKKVEPKSCDKTHTCPPCPAPEAAGAPSVFLFPPKPKDTLMISRTPEVTCVVVDVSHEDPEVKFNWYVDGVEVHNAKTKPREEQYNSTYRVVSVLTVLHQDWLNGKEYKCKVSNKALPAPIEKTISKAKGQPREPQVYTLPPSREEMTKNQVSLTCLVKGFYPSDIAVEWESNGQPENNYKTTPPVLDSDGSFFLYSKLTVDKSRWQQGNVFSCSVMHEALHNHYTQKSLSLSPGGGGGSGGGGSGGGGSELQMTQSPSSLSASVGDRVTITCQASQDIGNYLNWYQQKPGKAPKLLIYDASYLETGVPSRFSGSGSGTDFTFTISSLQPEDIATYYCQQYDNLPFTFGPGTKVDIKGGGGSGGGGSGGGGSGGGGSEVQLVESGGGLVQPGRSLRLSCAASGFTFDDYAMHWVRQAPGKGLEWVSGISWNSGSIDYADSVKGRFTISRDNAKNSLYLQMNSLRVEDTALYYCAKDGSRVFGVGGGFDFWGQGTMVTVSS
light: not shown
notes: Anti-PD-1 agonist human IgG1 with an SD3 anti-desmoglein scFv at the C-terminus of each heavy chain; copies: 2 + 2
B4: IL2DSGAB3 (other)
heavy: EVQLVESGGGLVQPGRSLRLSCAASGFTFDDYAMHWVRQAPGKGLEWVSGISWNSGSIDYADSVKGRFTISRDNAKNSLYLQMNSLRVEDTALYYCAKDGSRVFGVGGGFDFWGQGTMVTVSSASTKGPSVFPLAPSSKSTSGGTAALGCLVKDYFPEPVTVSWNSGALTSGVHTFPAVLQSSGLYSLSSVVTVPSSSLGTQTYICNVNHKPSNTKVDKKVEPKSCDKTHTCPPCPAPEAAGAPSVFLFPPKPKDTLMISRTPEVTCVVVDVSHEDPEVKFNWYVDGVEVHNAKTKPREEQYNSTYRVVSVLTVLHQDWLNGKEYKCKVSNKALPAPIEKTISKAKGQPREPQVYTLPPSREEMTKNQVSLTCLVKGFYPSDIAVEWESNGQPENNYKTTPPVLDSDGSFFLYSKLTVDKSRWQQGNVFSCSVMHEALHNHYTQKSLSLSPGGGGGSAPTSSSTKKTQLQLEHLLLDLQMILNGINNYKNPKLTRMLTFKFYMPKKATELKHLQCLEEELKPLEEALNLAPSKNFHLRPRDLISDINVIVLELKGSETTFMCEYADETATIVEFINRWITFSQSIISTLT
light: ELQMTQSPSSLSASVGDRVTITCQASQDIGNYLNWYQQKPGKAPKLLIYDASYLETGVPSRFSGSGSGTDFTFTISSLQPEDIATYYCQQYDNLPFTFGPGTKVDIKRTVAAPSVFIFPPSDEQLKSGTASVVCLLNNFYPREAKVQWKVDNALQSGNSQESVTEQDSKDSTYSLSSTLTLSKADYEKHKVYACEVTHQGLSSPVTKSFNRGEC
notes: SD3 anti-desmoglein human IgG1 with the IL-2 mutein fused to the C-terminus of the heavy chain; copies: 2 + 2
B5: IL2DSGAB4 (other)
heavy: QVQLVQSGGGVVQSGRSLRLSCAASGFTFSDYAMHWVRQAPGKGLEWVAVISHGGTKKYTGDSVKGRFIISRDNSKNTVFLQMNSLRVEDTAVYYCARDRVEGYVWGGTFDHWGQGTPVTVSSASTKGPSVFPLAPSSKSTSGGTAALGCLVKDYFPEPVTVSWNSGALTSGVHTFPAVLQSSGLYSLSSVVTVPSSSLGTQTYICNVNHKPSNTKVDKKVEPKSCDKTHTCPPCPAPEAAGAPSVFLFPPKPKDTLMISRTPEVTCVVVDVSHEDPEVKFNWYVDGVEVHNAKTKPREEQYNSTYRVVSVLTVLHQDWLNGKEYKCKVSNKALPAPIEKTISKAKGQPREPQVYTLPPSREEMTKNQVSLTCLVKGFYPSDIAVEWESNGQPENNYKTTPPVLDSDGSFFLYSKLTVDKSRWQQGNVFSCSVMHEALHNHYTQKSLSLSPGGGGGSAPTSSSTKKTQLQLEHLLLDLQMILNGINNYKNPKLTRMLTFKFYMPKKATELKHLQCLEEELKPLEEALNLAPSKNFHLRPRDLISDINVIVLELKGSETTFMCEYADETATIVEFINRWITFSQSIISTLT
light: ELVLTQPPSVPVAPGQTANISCGGNNIGRQTVHWYQQKPGQAPVLVVFDDSDRPAGIPERFSGSNSGNTATLTISRVEAGDEADYYCQVWDSSSDHVVFGGGTQLTVLGQPKAAPSVTLFPPSSEELQANKATLVCLISDFYPGAVTVAWKADSSPVKAGVETTTPSKQSNNKYAASSYLSLTPEQWKSHRSYSCQVTHEGSTVEKTVAPTECS
notes: SD4 anti-desmoglein human IgG1 with the IL-2 mutein fused to the C-terminus of the heavy chain; copies: 2 + 2
B6: PD1DSGAB4 (bispecific antibody, human IgG1, kappa)
heavy: QVQLVQSGAEVKKPGASVKVSCKASGYSFTTYYMHWVRQAPGQGLEWMGIINPSGGSTSYAQKFQGRVTMTRDTSTSTVYMELSSLRSEDTAVYYCASGWVYWGQGTLVTVSSASTKGPSVFPLAPSSKSTSGGTAALGCLVKDYFPEPVTVSWNSGALTSGVHTFPAVLQSSGLYSLSSVVTVPSSSLGTQTYICNVNHKPSNTKVDKKVEPKSCDKTHTCPPCPAPEAAGAPSVFLFPPKPKDTLMISRTPEVTCVVVDVSHEDPEVKFNWYVDGVEVHNAKTKPREEQYNSTYRVVSVLTVLHQDWLNGKEYKCKVSNKALPAPIEKTISKAKGQPREPQVYTLPPSREEMTKNQVSLTCLVKGFYPSDIAVEWESNGQPENNYKTTPPVLDSDGSFFLYSKLTVDKSRWQQGNVFSCSVMHEALHNHYTQKSLSLSPGGGGGSGGGGSGGGGSELVLTQPPSVPVAPGQTANISCGGNNIGRQTVHWYQQKPGQAPVLVVFDDSDRPAGIPERFSGSNSGNTATLTISRVEAGDEADYYCQVWDSSSDHVVFGGGTQLTVLGGGGSGGGGSGGGGSGGGGSQVQLVQSGGGVVQSGRSLRLSCAASGFTFSDYAMHWVRQAPGKGLEWVAVISHGGTKKYTGDSVKGRFIISRDNSKNTVFLQMNSLRVEDTAVYYCARDRVEGYVWGGTFDHWGQGTPVTVSS
light: not shown
notes: Anti-PD-1 agonist human IgG1 with an SD4 anti-desmoglein scFv at the C-terminus of each heavy chain; copies: 2 + 2

Tests used:
human DSG-3 [1] = biological target: T1, human DSG-3; test: bridging ELISA, plate coated with hDSG-3, test article at 100 nM, then his-tagged hCD25 1 ug/mL, anti-His-HRP detection
human CD25 = biological target: T2, human CD25; test: BLI (Octet), test article captured on anti-human Fc biosensors, 1:1 global fit (method text names desmogleins as analyte; result told for human CD25)
human DSG-3 [2] = biological target: T1, human DSG-3; test: bridging ELISA, plate coated with hDSG-3, test article at 1 nM, then his-tagged hCD25 1 ug/mL, anti-His-HRP detection
human DSG-3 [3] = biological target: T1, human DSG-3; test: bridging ELISA, plate coated with hDSG-3, test article at 10 nM, then his-tagged hCD25 1 ug/mL, anti-His-HRP detection
[4] = biological target: PD-1 on PD-1 reporter Jurkat cells (human, UniProt Q15116 25-288); test: cell-based or functional assay
Sequence of PD-1 on PD-1 reporter Jurkat cells (Q15116 25-288): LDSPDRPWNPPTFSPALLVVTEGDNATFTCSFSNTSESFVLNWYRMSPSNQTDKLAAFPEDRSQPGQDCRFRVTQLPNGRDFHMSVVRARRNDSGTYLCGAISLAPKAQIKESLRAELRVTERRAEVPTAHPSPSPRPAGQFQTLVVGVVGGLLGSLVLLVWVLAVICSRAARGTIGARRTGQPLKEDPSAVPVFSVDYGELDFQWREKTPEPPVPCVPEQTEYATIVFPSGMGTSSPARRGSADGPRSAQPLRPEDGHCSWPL

Insulin = biological target: T3, Insulin; test: ELISA, plate coated with insulin 5 ug/mL, test article at 100 nM, anti-human Fc-HRP detection
T3 construct: Plate coat in the polyreactivity ELISA

human PD-1 = biological target: T4, human PD-1 (human, UniProt Q15116 25-167); test: BLI (Octet), test article captured on anti-human Fc biosensors, human PD-1 as analyte, 1:1 global fit
T4 construct: Soluble analyte in the Octet assay
T4 sequence (Q15116 25-167 limits assumed): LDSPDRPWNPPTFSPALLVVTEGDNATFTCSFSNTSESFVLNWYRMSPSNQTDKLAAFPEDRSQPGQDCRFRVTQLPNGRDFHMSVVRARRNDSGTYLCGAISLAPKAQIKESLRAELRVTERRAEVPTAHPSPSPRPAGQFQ

Binder	absorbance (OD450 nm) (human DSG-3 [1])	Kd (human CD25) [nM]	absorbance (OD450 nm) (human DSG-3 [2])	absorbance (OD450 nm) (human DSG-3 [3])	SHP-2 recruitment in PD-1 reporter Jurkat cells (test article on anti-human IgG coated plate), EC50 at 2 hours [4] [nM]	SHP-2 recruitment in PD-1 reporter Jurkat cells (test article on anti-human IgG coated plate), EC50 at 24 hours [4] [nM]	Insulin polyreactivity score (Insulin)	Kd (human PD-1) [nM]
B1	1.2	3.5	0.36	0.55				
B2					107	11.2	1.3	123
B3							1.7	328
B4	0.756		0.508	0.628			2.9	
B5	1.16		0.194	0.545			3.1	
B6								243
